Source: patent US20170035898A1, “CONJUGATES OF AN IL-15 MOIETY AND A POLYMER” (Nektar Therapeutics, priority 2014, published 2017)

Legend:
IL-15-Rα-Fc [1] = experiment: SPR (Biacore), IL-15Rα-Fc captured by anti-human Fc antibody, test article injected
IL-15-Rα-Fc [2] = experiment: SPR (Biacore), IL-15Rα-Fc captured by anti-human Fc antibody, Kd from kd/ka
IL-15Rα = experiment: Receptor affinities for IL-15Rα by Surface Plasmon Resonance (Example 10); type: binding; conditions: SPR
Protocol: The affinities of IL-15 and rIL-15 conjugates were measured using Surface Plasmon Resonance (“SPR”). Briefly, the surface of a Biacore CMS sensor chip was activated using a 1:1 mixture of NHS:EDC to generate active NHS esters. Goat anti-human Fc antibody was covalently attached to the surface by injecting it for five minutes in 10 mM sodium acetate (pH 4). There were approximately 8000 RU of antibodies bound to the surface. Any remaining NHS ester was then quenched with ethanolamine
At the initiation of each injection cycle, IL-15-Rα-Fc was captured on a sensor chip channel by a five minute injection step in PBSP. Typically, 150-200 RU of receptors were bound on the surface.
rIL-15 conjugates were diluted to 10 μM in PBS (containing 0.05% Tween 20 and 0.1 mg/ml BSA). A series of 3-fold dilutions were made and injected onto a sensor chip which was coated with IL-15Rα. The affinities were measured by determining the ka and kd rates separately, and the ratio between kd and ka was used to calculate the Kd values.

[3] = tested on: STAT5 phosphorylation in CTLL-2 cells; experiment: Measurement of IL-15 activity of rIL-15 conjugates based on STAT5 phosphorylation in CTLL-2 cells (Example 8); type: cell-based; conditions: 10 minute treatment
Protocol: One day prior to the assay, CTLL-2 cells were split into fresh growth medium [RPMI 1640 supplemented with 10% FBS, 10% T-cell culture supplement (catalog #354115, Corning, Inc., Tewksbury, Mass.), 2 mM L-glutamate, and 1 mM sodium pyruvate]. On the day of assay, cells were pre-incubated in assay medium (RPMI 1640 supplemented with 1% FBS, 2 mM L-glutamate, and 1 mM sodium pyruvate) for at least four hours, and then plated in assay medium in a 96-well plate at 50,000 cells/well. Dilutions of the test article were prepared in an appropriate buffer immediately prior to assay. Stimulation of CTLL-2 cells was initiated by the transfer of 25× test article solutions to triplicate wells containing CTLL-2 cells. Plates were incubated at 37° C., 5% CO2 for 10 minutes, and the reaction was stopped by cell lysis. Detection of phospho-STAT5 and total STAT5 protein levels in cell lysates was performed using the MSD Phospho (Tyr694)/Total STATa,b Whole Cell Lysate Kit (catalog #K15163D, Meso Scale Diagnostics, LLC, Gaithersburg, Md.). […] Conjugates prepared in accordance with Examples 2, 3 and 5 were tested, with the results following a 10 minute treatment provided in Table 4.

[4] = tested on: STAT5 phosphorylation in CTLL-2 cells; experiment: Measurement of IL-15 activity of rIL-15 based on STAT5 phosphorylation in CTLL-2 cells (Example 1); type: cell-based
From the text: For any given peptide, protein moiety or conjugate, it is possible to determine whether that peptide, protein moiety or conjugate has IL-15 activity. Various methods for determining in vitro IL-15 activity are described in the art. An exemplary approach is based on a pSTAT assay. Briefly, if an IL-15-dependent CTLL-2 cell is exposed to a test article having IL-15 activity, initiation of a signaling cascade results that includes the phosphorylation of STAT5 at tyrosine residue 694 (Tyr694) that can be quantitatively measured.
One day prior to assay, CTLL-2 cells were split into fresh growth medium (RPMI 1640+10% FBS+10% T-STIM+2 mM L-glut+1 mM Na-pyruvate). On the day of assay, cells were pre-incubated in assay medium (RPMI 1640+1% FBS+2 mM L-glut+1 mM Na-pyruvate) for at least 4 hours and then placed in a 96-well plate at 50,000 cells/well in the assay medium.
Dilutions of the test article were prepared in an appropriate buffer immediately prior to assay and each dilution of test article was incubated in a separate well of the CTLL-2 cells. The phosphorylation of STAT5 was then determined using the MSD Phospho (Tyr694)/Total STATa,b Whole Cell Lysate Kit (catalog #K15163D, […], LLC, Gaithersburg, Md.).

B16F10 melanoma tumor = experiment: Antitumor activity of rIL-15 conjugates in B16F10 melanoma tumor (Example 9); type: in vivo, C57BL/6 mice; conditions: conjugates 0.6 mg/kg i.v. once, IL-15 0.3 mg/kg i.p. every other day x6
Protocol: To test and compare the efficacy of rIL-15 conjugates in an in vivo model, syngenic tumors were induced in 6-8 week old female C57BL/6 mice by subcutaneously injecting, into post ventral abdominal region, mouse metastatic B16F10 melanoma cells at a density of 1×10^6 cells mL-1 in 100 μL volume of non-serum containing cell culture medium. The mice developed tumors of approximately 100 mm^3 by the end of 6-8 days. The mice were divided into six groups, each group consisting of 10 animals.
Groups A through D correspond to rIL-15 conjugates that were administered at 0.6 mg/kg body weight by intravenous injection to the mice only once while Group E represents unconjugated IL-15 administered every other day via intraperitoneal injection. Group F represents a vehicle control, wherein phosphate buffered saline was administered by intravenous injection.
Following dose administration, the mice were measured for changes in body weight and for the growth of subcutaneous metastatic melanoma tumors by digital calipers three times a week. Daily clinical signs were also monitored. The study end point was reached when the mean volume of the tumors reach 1500 mm^3 (i.e., a mean tumor volume of 1500 mm^3).

[5] = IL-15-Rα-Fc captured on sensor chip
[6] = days from the day of implantation

Fraction containing di- and tri-PEG-rIL-15 from Example 5 ([mPEG2-ru-40K]-[rIL-15] conjugates) (from UniProt P40933 49-162) (ligand)
koff (IL-15-Rα-Fc [1]): 0.00088 s⁻¹
kon (IL-15-Rα-Fc [1]): 460000 M⁻¹ s⁻¹
Kd (IL-15-Rα-Fc [2]): 1900 pM

Fraction containing di- and tri-PEG-rIL-15 from Example 2 ([mPEG2-ru-20K]-[rIL-15] conjugates) (from UniProt P40933 49-162) (ligand)
koff (IL-15-Rα-Fc [1]): 0.00049 s⁻¹
kon (IL-15-Rα-Fc [1]): 2.6e+06 M⁻¹ s⁻¹
Kd (IL-15-Rα-Fc [2]): 183 pM

Fraction containing tri-PEG-rIL-15 from Example 5 ([mPEG2-ru-40K]-[rIL-15] conjugates) (from UniProt P40933 49-162) (ligand)
koff (IL-15-Rα-Fc [1]): 0.0039 s⁻¹
kon (IL-15-Rα-Fc [1]): 420000 M⁻¹ s⁻¹
Kd (IL-15-Rα-Fc [2]): 9400 pM

Fraction containing mono-PEG-rIL-15 from Example 2 ([mPEG2-ru-20K]-[rIL-15] conjugates) (from UniProt P40933 49-162) (ligand)
Kd (IL-15-Rα-Fc [2]): 43 pM

Fraction containing mono-PEG-rIL-15 from Example 5 ([mPEG2-ru-40K]-[rIL-15] conjugates) (from UniProt P40933 49-162) (ligand)
koff (IL-15-Rα-Fc [1]): 0.00047 s⁻¹
kon (IL-15-Rα-Fc [1]): 130000 M⁻¹ s⁻¹
Kd (IL-15-Rα-Fc [2]): 3560 pM

recombinant IL-15 (unconjugated) (from UniProt P40933 49-162) (ligand)
Kd (IL-15-Rα-Fc [2]): 3.8 pM

IL-15: recombinant human IL-15 obtained from PeproTech (catalog #200-15); unconjugated control
ka (IL-15Rα; [5]): 7.5e+06 M⁻¹ s⁻¹
kd (IL-15Rα; [5]): 0.00028 s⁻¹
Kd (IL-15Rα; read-out: affinity (Kd)): 3.8 pM
EC50 (ng/mL) Ave ± SD [3]: 0.063 ± 0.028 ng/mL
average pSTAT5 EC50 ([4]; at 5 minutes, average over two runs): 0.2071 ng/mL
pSTAT5 EC50 ([4]; at 10 minutes): 0.08187 ng/mL
Tumor Volume Doubling Time (500 mm^3) (B16F10 melanoma tumor): 2.9 days
Tumor Volume Doubling Time (1000 mm^3) (B16F10 melanoma tumor): 5.6 days
Time to reach 250 mm^3 (B16F10 melanoma tumor; [6]): 10.6 days
Time to reach 500 mm^3 (B16F10 melanoma tumor; [6]): 13.5 days
Time to reach 1000 mm^3 (B16F10 melanoma tumor; [6]): 19.1 days
Tumor growth delay for 250 mm^3 (B16F10 melanoma tumor; versus vehicle control Group F): 0.6 days
Tumor growth delay for 500 mm^3 (B16F10 melanoma tumor; versus vehicle control Group F): 0.9 days
Tumor growth delay for 1000 mm^3 (B16F10 melanoma tumor; versus vehicle control Group F): 4 days
